Results on three substances are retold here after publication PMC11137106.

The target in this assay is ribosomal protein L23 (E. coli (endogenous in A19 cell extract)) (UniProt P0ADZ0). In words: cross-linking; zero-length EDC crosslinking of resuspended RNCs (ca. 30 nM) made in WT or Δtig A19 E. coli cell-free system (WT: TF 2–15 nM, DnaK 0.5 µM, DnaJ 0.04 µM, GrpE 0.05 µM), +/- puromycin; low-pH SDS-PAGE of the BODIPY-FL nascent chain and Western blots against L23, L24 and L29; percent crosslinking by ImageJ. In general terms: In western blotting, separated proteins are transferred to a membrane and probed.

The substance “apoHmp_(1–189) ribosome-bound nascent chain (from UniProt P24232 1-189) (domain or fragment; other documents disagree on this pair)” registered a % EDC crosslinking of 85% and a normalized % EDC crosslinking (per EDC-reactive residue beyond the ribosomal tunnel core) of 2.8%.

Substance “apoHmp_(1–140) ribosome-bound nascent chain (from UniProt P24232 1-140) (domain or fragment; other documents disagree on this pair)” yielded a % EDC crosslinking of 92% and a normalized % EDC crosslinking (per EDC-reactive residue beyond the ribosomal tunnel core) of 4.6%.

Take “apoHmp_(1–55) ribosome-bound nascent chain (from UniProt P24232 1-55) (domain or fragment; other documents disagree on this pair)”: the % EDC crosslinking amounted to 27.4% and the normalized % EDC crosslinking (per EDC-reactive residue beyond the ribosomal tunnel core) came to 5.5%.
